Test results: paper PMC4325844 (Molecular Biology of the Cell, 2015)

Target: GST–PAR3-2N (UniProt Q9Z340 252-697)
Assay: pull-down

Chain of GST–PAR3-2N (Q9Z340 252-697): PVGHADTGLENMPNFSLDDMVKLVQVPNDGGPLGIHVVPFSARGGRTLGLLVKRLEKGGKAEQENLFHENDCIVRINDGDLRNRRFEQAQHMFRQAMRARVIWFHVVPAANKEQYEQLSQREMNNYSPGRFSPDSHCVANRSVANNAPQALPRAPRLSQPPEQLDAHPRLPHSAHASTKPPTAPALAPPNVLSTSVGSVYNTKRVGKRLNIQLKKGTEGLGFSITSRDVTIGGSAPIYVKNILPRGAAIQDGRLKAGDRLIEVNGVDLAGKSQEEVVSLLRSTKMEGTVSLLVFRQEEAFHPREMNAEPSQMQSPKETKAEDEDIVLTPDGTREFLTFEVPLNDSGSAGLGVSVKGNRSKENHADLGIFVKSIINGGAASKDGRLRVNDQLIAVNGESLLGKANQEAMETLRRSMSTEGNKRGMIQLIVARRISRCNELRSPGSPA

Kd: ~6 nM
B1: MBP–CLASP2-N2 (domain or fragment, UniProt O75122 310-670, looked up)
chain: SSGSVASLPQSDRSSSSSQESLNRPFSSKWSTANPSTVAGRVSAGSSKASSLPGSLQRSRSDIDVNAAAGAKAHHAAGQSVRSGRLGAGALNAGSYASLEDTSDKLDGTASEDGRVRAKLSAPLAGMGNAKADSRGRSRTKMVSQSQPGSRSGSPGRVLTTTALSTVSSGVQRVLVNSASAQKRSKIPRSQGCSREASPSRLSVARSSRIPRPSVSQGCSREASRESSRDTSPVRSFQPLASRHHSRSTGALYAPEVYGASGPGYGISQSSRLSSSVSAMRVLNTGSDVEEAVADALKKPARRRYESYGMHSDDDANSDASSACSERSYSSRNGSIPTYMRQTEDVAEVLNRCASSNWSER
